From US20150148405A1 (Johns Hopkins, published 2015)

Molecular target: ribosomal protein S6 (RPS6) (mouse, UniProt P62754 1-249)
Test: co-immunoprecipitation with GW182 antiserum from hippocampal neuron lysates, immunoblot
Procedure: Proteins and mRNAs associated with P-body component GW182 were isolated through immunoprecipitation of GW182 by modification of previously published protocols (Keene et al., 2006; Moser et al., 2009). Primary cultures of mouse hippocampal neurons (DIV 14-15) were incubated in serum-reduced medium (0.5% B27 supplement) for 2 hours, followed by […] Actinomycin-D for […] and mock or BDNF-stimulation for 30˜60 min. Cell lysates were harvested in polysomal lysis buffer (100 mM KCl, 5 mM MgCl₂, 10 mM HEPES pH 7.0, 0.5% NP-40) with protease inhibitor cocktail and freshly added 20 mM EDTA, 1 mM DTT, 100 U/mL RNase inhibitor (RNaseOut, Invitrogen) and 400 μM Vanadyl ribonucleoside complexes (SIGMA). Lysates were centrifuged and the supernatants pre-cleared by one-hour incubation with recombinant protein G beads pre-washed in NT2 buffer (50 mM Tris-HCl pH 7.4, 150 mM NaCl, 1 mM MgCl₂, 0.05% NP-40). Antibody coating of protein G beads was carried out with antiserum against GW182 (18033, gift of M. Fritzler) or control isotype-specific serum in NT2 buffer plus protease inhibitor for 4 hours after blocking with NT2 buffer plus 5% BSA and 1 mg/mL heparin for 1 hour. For immunoprecipitation (IP), equal amounts of lysate protein (2-5 mg) was incubated with antibody-coated beads and tumbled for 4 hours at 4° C., followed by washing. […]

binding result: no binding
B1: GW182 (other)
chain: MRELEAKATKDVERNLSRDLVQEEEQLMEEKKKKKDDKKKKEAAQKKATEQKIKVPEQIKPSVSQPQPANSDNGTSTATSTNNNAKRATASNQQPPPPQQQQPQQEQQQQQPQALPRYPREVPPRFRHQEHKQLLKRGQHFPVIAANLGSAVKVLNSQSESSAVTNQQPQNNGEVQNSKSQSDINHNTSGSHYENCQRGPVSSTSDCSTSCKNAVNDLLEKEAWPSAPGSDPELAPECIDADSASNSESERNITVMASGNTGGEKDGLRNSTGLGSQSKFVVGSSSNNVGHGSSTGPWGFPHGALISTCQVSVDAPESKPESSNNRMNAWGTVSSSSNGGLNPSTLNSASNHGAWPVLENNGLALKGPVGSGSSGINIQCSTIGQMPNNQNINSKVSGSSTHGTWGSLQETCEPEVSGTQKVSFSGQPQNITTETTGPNNTTNFMTSSLPNSGSVQNNELPTSNPGAWRVSTMNHPQIQAPSVMNGTSLSHLSNGESKTGGSYGTTWGAYGSNYSGDKCAGPNGQANGDTVNATLMQPGINGPMGTNFQVNTNKGGGVWEPGTVNSQSSPWGSGNGANSGGSRRGWGSPAQNTGTGLSSVEWNKLPSNQHSNDSANGNGKKLTNGWKSTEEDDQGSATSQTNEQNSVWAKAGGTVESDGSAESTGRLEEKVTGESQSRDRRKIDQHTLLQSIVNRTDLDPRVLSNSGWGQTPIKQNTAWDTETSPRGERKTDNGTEAWGSSATQTFNSGACTDKTSPNSNDTSSVSGWGDPKPTLRWGDSKGSNCQGGWEDDSAATGMIKSNQWGGCKEDKSTWNDSQKSKQGWGDGQKSSQGWSISAGDNWGESSRSNHWGEANKKSSSGGSDSDRSISGWNELGKTSSFTWGNNINPNNSSGWDESSKPNSSQGWGDPPKCNQSLGWGDSSKPVSSPDWNKQQDIVGSWGIPPATSKPPGTGWLGGPIPAPAKEEEPTGWEEPSPESIRRKMEIDDGTSAWGDPSKYNYKNVNMWNKNIPEASGRSDQQAQMHRLLPAASAVSSKETSSGSGWGEPWAEPSTPATTVDNGTSAWGKPIDSGPSWGEPITAASNASTWGSSSVGPQSLSKSGPKSMQDGWCGDDMPLPGSRPTGWEEEEDVEIGMWNSNSSQELNSSLNWPPYTKKMSSKGLSGKKRRRERGMMKGGNKQEDAWINPFVKQFSNISFSRDSPEENVQSNKMDLSGGMLQDKRMEIDKHSLNIGDYNRTVGKGPGSRPQISKESSMERNPYFDKNGNPNMFGVGNTAAQPRGMQQPPAQPLSSSQPNLRAQVPPPLLSPQVPVSLLKYAPNNGGLNPLFGPQQVAMLNQLSQLNQLSQISQLQRLLAQQQRAQSQRSAPSANRQQQDQQGRPLSVQQQMMQQSRQLDPSLLVKQQTPPSQQPLHQPAMKSFLDNVMPHTTPELQKGPSPVNAFSNFPIGLNSNLNVNMDMNSIKEPQSRLRKWTTVDSMSVNTSLDQNSSKHGAISSGFRLEESPFVPYDFMNSSTSPASPPGSIGDGWPRAKSPNGSSSVNWPPEFRPGEPWKGYPNIDPETDPYVTPGSVINSLSINTVREVDHLRDRNSGSSSSLNTTLPSTSAWSSIRASNYNVPLSSTAQSTSARNSDSKLTWSPGSVTNTSLAHELWKVPLPPKNITAPSRPPPGLTGQKPPLSTWDNSPLRVGGGWGNSDARYTPGSSWGESSSGRITNWLVLKNLTPQIDGSTLRTLCMQHGPLITFHLNLPHGNALVRYSSKEEVVKAQKSLHMCVLGNTTILAEFASEEEISRFFAQSQSLTPSPGWQSLGSSQSRLGSLDCSHSFSSRTDVNHWNGAGLSGANCGDLHGTSLWGTPHYSTSLWGPPSSDPRGISSPSPINAFLSVDHLGGGGESM
notes: Endogenous protein pulled down from neuronal lysate with GW182 antiserum 18033 (gift of M. Fritzler) on protein G beads; also called TNRC6a; P-body component GW182
